# Source: patent US20200283508A1 (TEXAS A AND M UNIVERSITY SYSTEM, published 2020)
# Positions count from the first letter of the chain named. Read-outs that look alike come from different tables or passages of the source.
# T1: Coa-R0474-505 (recombinant protein) (Staphylococcus aureus strain Newman)
# T1 chain: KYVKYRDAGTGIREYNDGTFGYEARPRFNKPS
# T2: Efb-N30-105 (Staphylococcus aureus strain Newman, UniProt A6QG59 30-105)
# T2 sequence: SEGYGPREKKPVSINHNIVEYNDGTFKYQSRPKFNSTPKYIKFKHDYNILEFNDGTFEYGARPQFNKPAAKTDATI
# B1: Fibrinogen-D fragment (other)
# chain 1: VSEDLRSRIEVLKRKVIEKVQHIQLLQKNVRAQLVDMKRLEVDIDIKIRSCRGSCSRALAREVDLKDYEDQQKQLEQVIAKDLLPSR
# chain 2: DNENVVNEYSSELEKHQLYIDETVNSNIPTNLRVLRSILENLRSKIQKLESDVSAQMEYCRTPCTVSCNIPVVSGKECEEIIRKGGETSEMYLIQPDSSVKPYRVYCDMNTENGGWTVIQNRQDGSVDFGRKWDPYKQGFGNVATNTDGKNYCGLPGEYWLGNDKISQLTRMGPTELLIEMEDWKGDKVKAHYGGFTVQNEANKYQISVNKYRGTAGNALMDGASQLMGENRTMTIHNGMFFSTYDRDNDGWLTSDPRKQCSKEDGGGWWYNRCHAANPNGRYYWGGQYTWDMAKHGTDDGVVWMNWKGSWYSMRKMSMKIRPFFPQQ
# chain 3: KMLEEIMKYEASILTHDSSIRYLQEIYNSNNQKIVNLKEKVAQLEAQCQEPCKDTVQIHDITGKDCQDIANKGAKQSGLYFIKPLKANQQFLVYCEIDGSGNGWTVFQKRLDGSVDFKKNWIQYKEGFGHLSPTGTTEFWLGNEKIHLISTQSAIPYALRVELEDWNGRTSTADYAMFKVGPEADKYRLTYAYFAGGDAGDAFDGFDFGDDPSDKFFTSHNGMQFSTWDNDNDKFEGNCAEQDGSGWWMNKCHAGHLNGVYYQGGTYSKASTPNGYDNGIIWATWKTRWYSMKKTTMKIIPFNRLTIGEGQQHHLGGAK
# notes: domain: D fragment; also called Fg-D; D fragment of human Fg
# B2: FBE5-D9 (scFv, V domains shown)
# VH: QVQLVESGGGVVQPGRSLRLSCAASGFTFSSYGMHWVRQAPGKGLEWVAVISYDGSNKYYADSVKGRFTISRDNSKNTLYLQMNSLRAEDTAVYYCAKNQEWLVPGYWGQGTLVTVSS
# VL: QSALTQPASVSGSPGQSITISCTGTSSDVGGYNYVSWYQQHPGKAPKLMIYDVSNRPSGVSNRFSGSKSGNTASLTISGLQAEDEADYYCSSYTSSSTLVFGGGTKLTVL
# B3: FBE5-F11 (scFv, V domains shown)
# VH: B2 VH with V5Q, N99D, Q100L, E101A, W102S, L103S, V104G, P105F, G106D
# VL: QSVLTQPPSVSAAPGQKVTISCSGSSSNIGNNYVSWYQQLPGTAPKLLIYDNNKRPSGIPDRFSGSKSGTSATLGITGLQTGDEADYYCGTWDSSLSAEVFGGGTKLTVL
# B4: FBE5-A5 (scFv, V domains shown)
# VH: EVQLVQSGGGVVQPGRSLRLSCAASGFTFSSYGMHWVRQAPGKGLEWVAVISYDGSNKYYADSVKGRFTISRDNSKNTLYLQMNSLRAEDTAVYYCAKAGPDSYGYGMDVWGQGTTVTVSS
# VL: not shown
# B5: FBE5-E5 (scFv, V domains shown)
# VH: QMQLVQSGGGVVQPGRSLRLSCAASGFTFSSYGMHWVRQAPGKGLEWVAVISYDGSNKYYADSVKGRFTISRDNSKNTLYLQMNSLRGEDTAVYYCAREGGWEPNGLDYWGQGTLVTVSS
# VL: B3 VL
# B6: LIG40-D8 (scFv, V domains shown)
# VH: EVQLVESGGGVVQPGRSLRLSCAASGFTFSSYGMHWVRQAPGKGLEWVAVIWYDGSNKYYADSVKGRFTISRDNSKNTLYLQMNSLRAEDTAVYYCARDYHGDGFDYWGQGTLVTVSS
# VL: DIQMTQSPSSLSASVGDTVTITCRASQDINNYLAWFQQKPGKAPKSLISAASSLQNGVPLRFSGSASGADFTLTISGLQPEDSGTYYCQQYDVFPITFGPGTKVDIK
# B7: FBE5-D10 (scFv, V domains shown)
# VH: QVQLVQSGGGVVQPGRSLRLSCAASGFTFSNYGMHWVRQAPGKGLEWVAVISYDGSNKYYADSVKGRFTISRDNSKNTLYLQMNSLRAEDTAVYYCAKDSREQWLAHWGQGTLVTVSS
# VL: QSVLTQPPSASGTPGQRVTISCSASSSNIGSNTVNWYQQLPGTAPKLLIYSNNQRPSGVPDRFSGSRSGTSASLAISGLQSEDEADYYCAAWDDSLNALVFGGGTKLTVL
# Tests used:
# [1] = molecular target: T3, synthetic peptide Coa-RI (Coa 506-532) (Staphylococcus aureus strain Newman); test: isothermal titration calorimetry, peptide into 10 µM Fg-D, one-site model
# T3 construct: also called sCoa-RI
# [2] = molecular target: T4, Coa-C (Coa 311-636) (Staphylococcus aureus strain Newman, UniProt P08515 1-218 = GST)
# [3] = molecular target: T5, Coa-F (Coa 311-505) (Staphylococcus aureus strain Newman, UniProt P08515 1-218 = GST)
# [4] = molecular target: T1, Coa-R0474-505 (recombinant protein)
# [5] = molecular target: T2, Efb-N30-105
# [6] = molecular target: T6, recombinant Efb-O (Efb 68-98) (Staphylococcus aureus strain Newman, UniProt P08515 1-218 = GST)
# [7] = molecular target: T7, Coa-R (Coa 506-636) (Staphylococcus aureus strain Newman); test: ELISA, antigen coated 200 ng/well, scFv-Fc at 0.5 µg/ml
# [8] = molecular target: T4, Coa-C (Coa 311-636); test: apparent Kd from half-maximal binding in ELISA (GraphPad Prism)
# [9] = molecular target: T5, Coa-F (Coa 311-505); test: as above
# [10] = molecular target: T1, Coa-R0474-505 (recombinant protein); test: as above
# [11] = molecular target: T2, Efb-N30-105; test: as above
# [12] = molecular target: T8, Efb-A30-67 (Staphylococcus aureus strain Newman, UniProt P08515 1-218 = GST; A6QG59 30-67); test: as above
# [13] = molecular target: T6, recombinant Efb-O (Efb 68-98); test: as above
# [14] = molecular target: T8, Efb-A30-67
# [15] = molecular target: T2, Efb-N30-105; test: ELISA, apparent Kd from half maximum binding
# [16] = molecular target: T8, Efb-A30-67; test: ELISA, apparent Kd from half maximum binding
# [17] = molecular target: T6, recombinant Efb-O (Efb 68-98); test: ELISA, apparent Kd from half maximum binding
# [18] = molecular target: T2, Efb-N30-105; test: ELISA, antigen coated 200 ng/well, scFv-Fc at 0.5 µg/ml
# [19] = molecular target: T4, Coa-C (Coa 311-636); remark: listed apart in the source
# [20] = molecular target: T7, Coa-R (Coa 506-636)
# [21] = molecular target: T5, Coa-F (Coa 311-505); remark: listed apart in the source
# [22] = molecular target: T9, BSA (bovine, UniProt P02769 25-607); test: solid-phase binding assay (FIG. 24)
# T9 construct: also called bovine serum albumin
# [23] = molecular target: T2, Efb-N30-105; test: solid-phase binding assay, titration (FIG. 24)
# [24] = molecular target: T8, Efb-A30-67; test: solid-phase binding assay, titration (FIG. 24)
# [25] = molecular target: T6, recombinant Efb-O (Efb 68-98); test: solid-phase binding assay, titration (FIG. 24)
# [26] = molecular target: T7, Coa-R (Coa 506-636); test: apparent Kd from half-maximal binding in ELISA (GraphPad Prism)
# Procedure: (§1) As well, binding was tested against Coa fragments, namely Coa-C₃₁₁₋₆₃₆, Coa-F₃₁₁₋₅₀₅, Coa-R0₄₇₄₋₅₀₅ and Coa-R₅₀₆₋₆₃₆. Recombinant proteins Efb-N₃₀₋₁₀₅, Efb-A₃₀₋₆₇, Efb-O₆₈₋₉₈, Coa-C₃₁₁₋₆₃₆, Coa-F₃₁₁₋₅₀₅, Coa-R0₄₇₄₋₅₀₅ and Coa-R₅₀₆₋₆₃₆ were diluted in 50 mM sodium carbonate pH 9.6 and immobilized at the concentration of 200 ng/well for 1 hour at room temperature. Immobilized proteins were probed for recognition in a solid-phase binding assay with different quantities of LIG40 antibodies after blocking and washing. After washing, varying concentrations of LIG40 scFv-Fc antibodies were diluted in 2% BSA+1×PBS+0.05% Tween-20 and incubated with the immobilized proteins for 1 hour at room temperature with shaking at 250 rpm. Bound scFv-Fcs were detected using polyclonal α-human IgG HRP-conjugated Ab diluted to 1:10000 in 2% BSA+1×PBS+0.05% Tween-20. HRP-conjugated Ab was incubated for 1 hour at room temperature with shaking at 250 rpm. HRP signal was developed with Sigma FAST-OPD using manufacturers guidelines.
# [27] = molecular target: T5, Coa-F (Coa 311-505); test: as above; remark: listed apart in the source
# Procedure: as §1
# [28] = molecular target: T1, Coa-R0474-505 (recombinant protein); test: as above
# Procedure: as §1
# [29] = molecular target: T4, Coa-C (Coa 311-636); test: apparent Kd from half-maximal binding in ELISA (GraphPad Prism); column head prints M, the text prints µM
# T9 sequence (P02769 25-607 limits assumed): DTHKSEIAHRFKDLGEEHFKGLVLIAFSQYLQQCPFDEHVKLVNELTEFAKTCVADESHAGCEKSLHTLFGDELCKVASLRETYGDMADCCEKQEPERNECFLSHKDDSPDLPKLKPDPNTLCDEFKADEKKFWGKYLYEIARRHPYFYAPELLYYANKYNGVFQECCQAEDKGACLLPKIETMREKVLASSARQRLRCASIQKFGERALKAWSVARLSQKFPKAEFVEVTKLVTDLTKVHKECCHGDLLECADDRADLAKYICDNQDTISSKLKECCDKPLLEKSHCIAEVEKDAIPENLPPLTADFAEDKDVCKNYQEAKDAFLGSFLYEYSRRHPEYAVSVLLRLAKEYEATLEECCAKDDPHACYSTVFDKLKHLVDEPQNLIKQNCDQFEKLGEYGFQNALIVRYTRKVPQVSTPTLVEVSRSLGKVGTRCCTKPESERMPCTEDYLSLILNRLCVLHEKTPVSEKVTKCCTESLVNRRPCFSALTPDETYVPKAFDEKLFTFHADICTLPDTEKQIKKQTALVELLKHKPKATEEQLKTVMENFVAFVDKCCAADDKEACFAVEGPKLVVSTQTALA
binder,measurement,setting,value
B1,Kd,[1],88 nM
B2,EC50 (read off the curve),[2],~0.08 µg/mL
same,EC50 (read off the curve),[3],~0.06 µg/mL
same,EC50 (read off the curve),[4],~0.1 µg/mL
same,EC50 (read off the curve),[5],~0.1 µg/mL
same,EC50 (read off the curve),[6],~0.3 µg/mL
same,binding result,[7],no binding (tested: 0.5 µg/ml)
same,Kd,[8],0.779 nM
same,Kd,[9],0.536 nM
same,Kd,[10],1.14 nM
same,Kd,[11],1.31 nM
same,Kd,[12],4.48 nM
same,Kd,[13],2.68 nM
B3,EC50 (read off the curve),[2],~0.06 µg/mL
same,EC50 (read off the curve),[14],~0.06 µg/mL
same,EC50 (read off the curve),[6],~0.05 µg/mL
same,Kd,[15],~0.1 nM
same,Kd,[16],~0.1 nM
same,Kd,[17],~0.1 nM
same,binding result,[7],no binding (tested: 0.5 µg/ml)
same,Kd,[8],0.513 nM
same,Kd,[9],0.244 nM
same,Kd,[10],0.213 nM
same,Kd,[11],0.219 nM
same,Kd,[12],0.483 nM
same,Kd,[13],0.396 nM
B4,EC50 (read off the curve),[4],~0.2 µg/mL
same,EC50 (read off the curve),[14],~0.4 µg/mL
same,binding result,[7],no binding (tested: 0.5 µg/ml)
same,Kd,[8],5.34 nM
same,Kd,[9],1.47 nM
same,Kd,[10],1.86 nM
same,Kd,[11],3.24 nM
same,Kd,[12],4.38 nM
same,Kd,[13],4.27 nM
B5,binding result,[18],binds
same,binding result,[7],no binding (tested: 0.5 µg/ml)
same,Kd,[8],6.27 nM
same,Kd,[9],9.5 nM
same,Kd,[10],864 nM
same,Kd,[13],434 nM
B6,EC50 (read off the curve),[19],~0.01 µg/mL
same,EC50 (read off the curve),[20],~0.01 µg/mL
same,EC50 (read off the curve),[21],~0.01 µg/mL
same,binding result,[22],no binding
same,binding result,[23],no binding
same,binding result,[24],no binding
same,binding result,[25],no binding
same,Kd,[26],0.0862 nM
same,Kd,[27],0.112 nM
same,Kd,[28],2.52 nM
same,Kd,[29],0.0939 nM
B7,EC50 (read off the curve),[2],~0.1 µg/mL
same,EC50 (read off the curve),[3],~0.09 µg/mL
same,EC50 (read off the curve),[4],~0.08 µg/mL
same,EC50 (read off the curve),[5],~0.2 µg/mL
same,EC50 (read off the curve),[14],~0.1 µg/mL
same,EC50 (read off the curve),[6],~0.3 µg/mL
same,binding result,[7],no binding (tested: 0.5 µg/ml)
same,Kd,[8],1.4 nM
same,Kd,[9],0.95 nM
same,Kd,[10],0.856 nM
same,Kd,[11],1.97 nM
same,Kd,[12],1.57 nM
same,Kd,[13],3.65 nM
